Data reported in publication PMC7018516, “Structure of the AAA protein Msp1 reveals mechanism of mislocalized membrane protein extraction” (eLife, 2020).
One block for each molecule: values may come before it.

Assays:
[1] = biological target: T1, Δ30-Msp1 (Thermochaetoides thermophila, UniProt G0S654); experiment: cryo-EM structure of complex; details: 5 mM ADP•BeFx, 5 mM MgCl2, pH 7.5; ADP without BeFx in subunit M5; nucleotide-binding pocket; substrate peptide in pore
T1 construct: gene CTHT_0034230; cytosolic domain lacking the 30-residue N-terminal membrane anchor; GST tag removed by thrombin; expressed in E. coli BL21(DE3); homohexamer with trapped endogenous E. coli peptide in the pore

[2] = biological target: T2, Δ30-Msp1 (Thermochaetoides thermophila, UniProt G0S654, E214Q); experiment: cryo-EM structure of complex; details: 2 mM ATP, 2 mM MgCl2, pH 7.5; subunits M1-M5; nucleotide-binding pocket; Walker B mutant, hydrolysis inactive
T2 construct: gene CTHT_0034230; cytosolic domain lacking the 30-residue N-terminal membrane anchor; GST tag removed by thrombin; expressed in E. coli BL21(DE3); homohexamer with trapped endogenous E. coli peptide in the pore

[3] = biological target: Δ30-Msp1 (cytosolic domain of Chaetomium thermophilum Msp1 lacking its 30 amino acid N-terminal membrane anchor) (Chaetomium thermophilum); experiment: SEC; gel filtration of the purified protein in Msp1 lysis buffer (25 mM HEPES pH 7.5, 300 mM NaCl, 1 mM DTT, 2 mM MgCl2); self-association
[4] = biological target: Δ30-Msp1 (cytosolic domain of Chaetomium thermophilum Msp1 lacking its 30 amino acid N-terminal membrane anchor) (Chaetomium thermophilum); experiment: cryo-EM structure; Δ30-Msp1 at 50–100 μM with 5 mM MgCl2 and 5 mM ADP•BeFx, 25 mM HEPES pH 7.5, 300 mM NaCl, 1 mM DTT, 2.5% glycerol; subunit with subunit; open and closed conformations
[5] = biological target: Δ30-Msp1^E214Q (Walker B mutant of the cytosolic domain of Chaetomium thermophilum Msp1) (Chaetomium thermophilum); experiment: SEC; gel filtration of the purified protein in Msp1 lysis buffer (25 mM HEPES pH 7.5, 300 mM NaCl, 1 mM DTT, 2 mM MgCl2); self-association
[6] = biological target: Δ30-Msp1^E214Q (Walker B mutant of the cytosolic domain of Chaetomium thermophilum Msp1) (Chaetomium thermophilum); experiment: cryo-EM structure; Δ30-Msp1^E214Q at 50–100 μM with 2 mM ATP and 2 mM MgCl2, 25 mM HEPES pH 7.5, 300 mM NaCl, 1 mM DTT, 2.5% glycerol; subunit with subunit; hexamer and larger oligomer classes
[7] = biological target: Δ30-Msp1^E214Q (Walker B mutant of the cytosolic domain of Chaetomium thermophilum Msp1) (Chaetomium thermophilum); experiment: as above; remark: listed apart in the source

T1 sequence (G0S654 entry or part of it, stated change not applied): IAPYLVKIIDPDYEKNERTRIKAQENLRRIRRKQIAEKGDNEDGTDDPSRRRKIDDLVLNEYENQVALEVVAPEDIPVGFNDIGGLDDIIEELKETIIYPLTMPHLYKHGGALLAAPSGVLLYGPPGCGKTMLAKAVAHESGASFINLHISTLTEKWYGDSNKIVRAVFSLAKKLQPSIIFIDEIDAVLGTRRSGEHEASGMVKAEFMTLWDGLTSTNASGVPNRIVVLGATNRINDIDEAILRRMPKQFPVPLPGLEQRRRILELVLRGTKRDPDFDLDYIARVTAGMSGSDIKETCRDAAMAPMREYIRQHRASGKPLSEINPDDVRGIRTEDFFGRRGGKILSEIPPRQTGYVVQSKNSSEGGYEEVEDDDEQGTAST
T2 sequence (G0S654 entry or part of it E214Q): as the sequence (G0S654 entry or part of it, stated change not applied) above, with E184Q counted along it

Molecule: Nc1ncnc2c1ncn2[C@@H]1O[C@H](COP(=O)(O)OP(=O)(O)O)[C@@H](O)[C@H]1O [ADP]
- cryo-EM structure of complex [1]: M1 -M4 were bound to ADP•BeFx (mimicking the ATP state), M5 was bound to ADP

Molecule: Nc1ncnc2c1ncn2[C@@H]1O[C@H](COP(=O)(O)OP(=O)(O)OP(=O)(O)O)[C@@H](O)[C@H]1O [ATP]
- cryo-EM structure of complex [2]: In Δ30-Msp1^E214Q, M1-M5 display clear density for ATP

- stoichiometry N [3]: 6
- stoichiometry N [4]: 6
Molecule: Δ30-Msp1 (cytosolic domain of Chaetomium thermophilum Msp1 lacking its 30 amino acid N-terminal membrane anchor) (enzyme)

- stoichiometry N [5]: > 6
- stoichiometry N [6]: 6
- stoichiometry N [7]: 7
Molecule: Δ30-Msp1^E214Q (Walker B mutant of the cytosolic domain of Chaetomium thermophilum Msp1) (enzyme)
